Tested on: K4 kissing-loop RNA reporter
Test: apparent KD of K4 kissing-loop reporter; higher = weaker reporter binding
Conditions: Eterna round: R107
Experimental: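 RNA-MaP round R107: designed RNA switches with theophylline, tryptophan, arginine or FMN aptamers are transcribed on-chip within common flanks. They are titrated with a labelled K4 kissing-loop RNA reporter in RNA-MaP buffer (100 mM Tris pH 7.5, 80 mM KCl, 4 mM MgCl2), without ligand or with the indicated ligand. Median apparent KD per design.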

[1] = input ligand: theophylline 20 uM
[2] = input ligand: tryptophan 2.4 mM
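Also: bound reporter read as fluorescence of individual clusters on recovered sequencing chips by microscopy, with normalized cluster intensities fitted with a binding model.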

Sequence | apparent KD of K4 kissing-loop reporter (input ligand: FMN 200 uM) [nM] | apparent KD of K4 kissing-loop reporter (input ligand: arginine 13.2 mM) [nM] | apparent KD of K4 kissing-loop reporter (input ligand: none) [nM] | apparent KD of K4 kissing-loop reporter [1] [nM] | apparent KD of K4 kissing-loop reporter [2] [nM]
AAAAUAAUCCAGUGAUGUUGGUCUCCAGAUACCAGCGACGAAAGUCGCCCUUGGCAGCUGUGGACGUACAAAAUAAGUACGUCCU | 366 | 416 | 464 | 345 | 314
AAACAUUGGUCGGAUACCAGCUGAUCGGAAACGAUCUUGCUGGAGUGAUGUUCCAAGUAAAGCCCUUGGCAGCCGACCGAUGAAA [MAT - Same State Theophlline B - Mod of Eli - D20] | 140 | 50.4 | 63.2 | 135 | 85.8
AAACCAAUCAGAGGAUAUUCUUUAUUCGACAUAACCUUCUAUAAGGUGCAGUGAUGUUGCAAUAUAGGAGAAGGCUGAUUGACAA [Exclusion FMN B Gf 13] | 232 | 338 | 516 | 488 | 413
AAACCCAGUGAUGUUGGGAAUCAGUUGAGGGAGGAUAUUGGUAAUACAAGAAGGCCCGGCUGCGGGUGAUGUUCGCAUUAGGGCC [Exclusion FMN A GF17] | 160 | 157 | 152 | 154 | 140
AAACGCUGUGAAUAACACAGCGAAAAUUCGCGAGGACCGGUACGGCCGCCACUCGCUAACUGCGAGUGAUGUUCGAUAAUAAAAU [Mat - Mod of OpenEnded 3 - D11] | 182 | 94.8 | 198 | 210 | 105
AAACGUUGGUGCGAUACCAGCUGAUCGGAAACGAUCUUGCUGGAGUGAUGUUCCAAGUAAAGCCCUUGGCAGCGCACCGACGAAA [MAT - Same State Theophlline B - Mod of Eli - D22] | 92.5 | 58.4 | 86.5 | 145 | 69.3
AAACGUUGGUGCGAUACCAGCUUGAUCGGUAAACGAUCUACUGGAGUGAUGUUCCUAAAUAGCCCUUGGCAGCGCACCGACGAAA [MAT - Same State Theophlline B - Mod of Eli - D8] | 181 | 155 | 169 | 128 | 166
AAACUUGCAGUGAUGUUGCAAGUAGGUGAUACCAGCAUCGAAAGAUGCCCUUGGCAGCACCAACACUGCAAGUAAGUAUCACCAA [(H1)-(H2)-(T1)-(T2)-(H)'-(T)'_Design1] | 116 | 138 | 128 | 161 | 111
AAACUUGCAGUGAUGUUGCAAGUAGGUGAUACCAGCAUCGAAAGAUGCCCUUGGCAGCACCAUCUUGCAACAAAGGUGCUGCCAA [(H1)-(H2)-(T1)-(T2)-(H)'-(T)'_Design7] | 87.5 | 77.4 | 88.2 | 67.6 | 81.2
AAAGAGUCACUCGAAGCUAUCGAAGAUAGGCGAGGACCGGUACGGCCGCCACUCGGAGUGAUGUUCCGAAGACUGUAAAAUAAAA [MatMod 12 - Jieux - Exclusion - Tryptophan A] | 208 | 240 | 206 | 170 | 295
AAAGCAUUGAGAAGGAGCGUGACGUGGAGUGAUGUUCCAUUGUAGUAAUAAUUACUACUAUCACAGGUAGGUCGCUCAUUGCUAA [JR_Nu_SSArginiB_Sub024] | 183 | 159 | 181 | 161 | 180
AAAUAGGUGUGCGAUACCAGCCGGAGUGAUGUUCCGUGUUGUACUGGCUGCACCUACGCCGGCCCUUGGCAGCGUGCUCCAUUUA [Enonin] | 177 | 140 | 169 | 263 | 148
AAAUAUUCGAGUGAUGUUCGUUAAAUUACAGAGGAUAUGCUUAAAAGCAGAAGGCUGUAUUUCUAUUUGUUAUGUAAUUUUAAAA [JR_ExcFMNA_Sub004] | 117 | 209 | 157 | 196 | 115
AAAUCUUUCAGAAGGAGCGUGGAUUAUUCAUAUAUAUUUAUUACGAGUGAUGUUCGUAAUUCACAGGUAGGUCGCUGUUCAAUAA [JR_ExcArginiB_Sub005] | 117 | 116 | 113 | 116 | 102
AAAUGCUUGUAUUUGAACAAUUCCUUUAGGGAGGAUAUUGGUAAUACAAGAAGGCCCUGAUGGGAGUGAUGUUCCCAUAACGCGG [Exclusion FMN A GF16] | 114 | 95 | 90.8 | 90.2 | 91.1
AAAUGUUUGUAUUUGAACAAUUUCUUUAGGGAGGAUAUUGGUAAUACAAGAAGGCCCUGAUGGGAGUGAUGUUCCCAUAACGCGG [Exclusion FMN A GF15] | 46.7 | 83.9 | 74 | 87.5 | 62.1
AAAUUCUUUUUUUUAUUUAAGUUUUCAGAAGGAGCGUGGUAGUACACAGGUAGGUCGCUGAAUUUUGGGCUAGUGAUGUUAGUUA [whbob_SS_Arginine_A_sa114] | 144 | 195 | 200 | 191 | 160
AAAUUUAUUAUAUUUGAAUAAAUAUGUGAUACCAGACAUUUAUAAGUCCCUUGGCAGCACAAUGCAGUGAUGUUGCUUAUAAUAA [JR_SSTheophyA_Sub018] | 89 | 110 | 93 | 182 | 73.8
AAAUUUUAAAGUGAUACCAGACAUCUCAAUUACAUUAAUAAAGCUAAGUGAUGUUUAGCAGUCCCUUGGCAGCACAAUUUAAUUA [JR_SSTheophyB_Sub011] | 272 | 334 | 334 | 447 | 281
AACCCAUGACUGGAUACCAGACUAUACAUGCUGAGUGAUGUUUAGCGGAGUCAUCUCUCGGUCCCUUGGCAGCCAACGUCACGCG [theeternabot_sameState_KL_Theo_B_33] | 614 | 334 | 646 | 403 | 373
AACCGAGGUAAUCCACAAAGAUAACAUGAUACCAGAUAUAUAAAUAUCCCUUGGCAGCAUGGCAUGAGUGAUGUUCAUGUGUCUU [KL-SSTheo-A10] | 441 | 325 | 460 | 269 | 356

Sequence | apparent KD of K4 kissing-loop reporter (input ligand: FMN 200 uM) [nM] | apparent KD of K4 kissing-loop reporter (input ligand: arginine 13.2 mM) [nM] | apparent KD of K4 kissing-loop reporter (input ligand: none) [nM] | apparent KD of K4 kissing-loop reporter [1] [nM] | apparent KD of K4 kissing-loop reporter [2] [nM]
AACGUUUUGAGAAGGAGCGCGUUCAGCAGUGAUGUUGCUUUACUUCAAUUUCUAGAUAAUUCGCAGGUAGGUCGCUCAAUACGUA [JR_Nu_ExcArginiB_Sub023] | 503 | 511 | 615 | 706 | 527
AACUUGUUUGGAGGAUAUUCUUUAUUCGACAUAACCUUCUAUAAGGUGCAGUGAUGUUGCAAUAUAGGAGAAGGUCGAGUGAGAA [Exclusion FMN B Gf 16] | 207 | 169 | 206 | 219 | 186
AAGACUGCAGGAAGGAGCGGCGGACGGAGUGAUGUUCCGGCUAGUGAUGUUAGCAAACACCGCCAGGUAGGUCGCCUGUUGCUCU [Same State Arginine B GF7] | 113 | 116 | 126 | 166 | 128
AAGCAGUCACUCGUAUCCAUCGAAGAUGGUCGAGGACCGGUACGGCCGCCACUCGGAGUGAUGUUCCGAAGACUGCAAAAUAAAA [#SwitchBubble 13] | 240 | 230 | 250 | 296 | 348
AAGCAUUCUUCGGAAUGCAGACCCGCUGAGGAGGAUAUGACGAAAGUCAGAAGGCCUCAGUGAUGUUGAGGCCUCCUCAAUGGUC [Omei KL FMN A Exc A v1] | 138 | 135 | 187 | 173 | 171
AAGGCCACGAGAAGGAGCGUGUUGUGGAGUGAUGUUCCACUGUAGACCUAAGGUCUACAGGCACAGGUAGGUCGCUCGUGGUCAA [Omei KL Arginine B SS A v6] | 131 | 110 | 145 | 131 | 127
AAGGUAUCACCAACAUUGCAAGAAGGUGAUACCAGCAUCGAAAGAUGCCCUUGGCAGCACCAACUUGCAGUGAUGUUGCAAGUAA [(T)'-(H)'-(T1)-(T2)-(H1)-(H2)_Design8] | 274 | 210 | 267 | 213 | 226
AAGUAGCUCUCGGCCGCCACUCCUCAGUGAUGUUGAGAUAUUAAUUGCCAAUUGGCGUAUUUAAAGAGGACCGGGAGAGCUACAA [AK3 SS Tryptophan B] | 368 | 315 | 378 | 328 | 117
AAGUCAUAGGCAGGAUAUGCAUUGUAAUAAGGCAAUAUAUACGUAUAGAGUGAUGUUUUGUACCAGGCAGAAGGGCUACAUCAGU [FMN B Excl V10 (+5A/U)] | 674 | 383 | 652 | 491 | 416
AAGUGAUGUUGUAGUGAUGUUGUGAUGUUGCAGGAUAUAUAGUGAUGUAGAAGGGUAAGUACUGAUGUUGUUUGUGAGUGAUGUU [zrrszrmullin] | 99.2 | 44.9 | 78.6 | 66.9 | 76.2
AAGUGAUGUUGUAGUGAUGUUGUGAUGUUGCAGGAUAUAUAGUGAUGUAGAAGGGUAUGUGCAGUGUUGUUAUUUGAGUGUUGAU [zffdmullin] | 89.7 | 41.4 | 78.7 | 73.8 | 66.9
AAGUGUCAUUAGACACAGACUACAAUACACUAGGAUAUGCUGAUAAGCAGAAGGAGUGAUGUUCCUUUCAAGUAGUCAAUUAAAU [FmnAX 21 Mat Inspired #SwitchBubble #StaticStem #K4Late] | 237 | 148 | 143 | 178 | 140
AAGUGUCAUUAGACACAGACUACAAUACGCUAGGAUAUGCUGAUAAGCAGAAGGAGUGAUGUUCCUUUCAAGUAGUCAAUUAAAU [FmnAX 22 Mat Inspired #SwitchBubble #StaticStem #K4Late] | 319 | 140 | 136 | 166 | 124
AAGUGUGUGGCGGCCGCCACUAGAAUCCAGUGAUGUUGGAGAUAUCACGUAAGUGAUAUCCAACAUAGGACCGGGCCAUAUAGAA [Same State - Tryptophan B (Freestyle 12)] | 142 | 111 | 80.3 | 210 | 95.5
AAGUUGAACUGAAGGAGCGAGAAAUAGAAUGUAAGAAUAUAUGCUAGUGAUGUUAGAAAUUCUCAGGUAGGUCGCAGUAAGUUUU [V2] | 363 | 418 | 474 | 407 | 285
AAUAAAAGAUGUUUAGGAAAGCAAAUGGAAGGAGCGUGCGAAAGCACAGGUAGGUCGCCAGUGAUGUUGGCACCUGAGCAUCAAA [#SwitchBubble 18 #K4Late] | 251 | 285 | 303 | 336 | 264
AAUAAAAUCACGGCCGCCACUGAAUAAUUACGAAGUAGUGAUGUUACUUCACAUAUCUUAUUUAACAGGACCGGGUGAAUAUUUA [#16 K4 Tryptophan B Exclusion] | 72.3 | 66.3 | 70.9 | 65.1 | 81.8
AAUAACUAGUAUAUUUUUAAUAAUACAGAUACCAGUGAUAAUAAACACCCUUGGCAGCUGAUCGAGUGAUGUUCGUUUAUUUUAA [JR_SSTheophyA_Sub002] | 84 | 74.6 | 93.3 | 188 | 66.2
AAUAAGCGCCGAAGGAGCGGCCUCCGAGUGAUGUUCGGUGAGAUGCCAGUGAUGUUGGCCGGCCAGGUAGGUCGCGGCAAAGCUU [Same State Arginine B GF 29] | 154 | 140 | 161 | 131 | 128
AAUAAGUGUCAGCGAGUGAUGUUCGACGAUACCAGCCUCGAUAGAGGCCCUUGGCAGCGUAACGCAUGCCAAACUGGCACAAUAA [#SwitchBubble 7 #K4Early] | 500 | 497 | 557 | 393 | 441
